Sequences and labels used below:
B1: His-tagged ACA8 N-terminus, wild type (6His-1M-I116) (domain or fragment)
chain: MTSLLKSSPGRRRGGDVESGKSEHADSDSDTFYIPSKNASIERLQQWRKAALVLNASRRFRYTLDLKKEQETREMRQKIRSHAHALLAANRFMDMGRESGVEKTTGPATPAGDFGI
B2: His-tagged ACA8 N-terminus S27D (6His-1M-I116) (domain or fragment)
chain: MTSLLKSSPGRRRGGDVESGKSEHADDDSDTFYIPSKNASIERLQQWRKAALVLNASRRFRYTLDLKKEQETREMRQKIRSHAHALLAANRFMDMGRESGVEKTTGPATPAGDFGI
B3: His-tagged ACA8 N-terminus S99D (6His-1M-I116) (domain or fragment)
chain: MTSLLKSSPGRRRGGDVESGKSEHADSDSDTFYIPSKNASIERLQQWRKAALVLNASRRFRYTLDLKKEQETREMRQKIRSHAHALLAANRFMDMGREDGVEKTTGPATPAGDFGI
B4: His-tagged ACA8 N-terminus S29D (6His-1M-I116) (domain or fragment)
chain: MTSLLKSSPGRRRGGDVESGKSEHADSDDDTFYIPSKNASIERLQQWRKAALVLNASRRFRYTLDLKKEQETREMRQKIRSHAHALLAANRFMDMGRESGVEKTTGPATPAGDFGI
B5: His-tagged ACA8 N-terminus S19D (6His-1M-I116) (domain or fragment)
chain: MTSLLKSSPGRRRGGDVEDGKSEHADSDSDTFYIPSKNASIERLQQWRKAALVLNASRRFRYTLDLKKEQETREMRQKIRSHAHALLAANRFMDMGRESGVEKTTGPATPAGDFGI
B6: His-tagged ACA8 N-terminus S57D (6His-1M-I116) (domain or fragment)
chain: MTSLLKSSPGRRRGGDVESGKSEHADSDSDTFYIPSKNASIERLQQWRKAALVLNADRRFRYTLDLKKEQETREMRQKIRSHAHALLAANRFMDMGRESGVEKTTGPATPAGDFGI
B7: His-tagged ACA8 N-terminus S22D (6His-1M-I116) (domain or fragment)
chain: MTSLLKSSPGRRRGGDVESGKDEHADSDSDTFYIPSKNASIERLQQWRKAALVLNASRRFRYTLDLKKEQETREMRQKIRSHAHALLAANRFMDMGRESGVEKTTGPATPAGDFGI

For this test, the target named is bovine testes calmodulin (bovine, UniProt P62157 1-149). Description: SPR.
Molecule B1 showed a Kd of 19.3 nM, an off-rate constant (koff) of 0.00244 s⁻¹ and a kon of 127000 M⁻¹ s⁻¹.

B2 displayed a Kd of 26.5 nM, a dissociation rate constant (koff) of 0.0052 s⁻¹ and a kon of 196000 M⁻¹ s⁻¹.

As to B3, binding was characterised by a dissociation constant (Kd) of 11.3 nM, the koff was 0.00137 s⁻¹ and the kon is 121000 M⁻¹ s⁻¹.

With B4, the affinity, expressed as Kd, was 22.3 nM; the koff stood at 0.00382 s⁻¹; the kon is 171000 M⁻¹ s⁻¹.

B5: the Kd worked out at 14.5 nM, the koff was 0.00325 s⁻¹ and the kon is 224000 M⁻¹ s⁻¹.

In turn, B6 yielded a Kd of 165 nM, an off-rate (koff) of 0.0255 s⁻¹ and a kon of 154000 M⁻¹ s⁻¹.

B7 displayed a Kd of 23.9 nM, a koff of 0.00139 s⁻¹ and a kon of 58000 M⁻¹ s⁻¹.

Source of the values: paper PMC3276087 (Journal of Experimental Botany, 2011).
